The labels stand for the following.
T1: CCP16, two-hybrid prey clone E2F5BBC1 (Arabidopsis thaliana, UniProt Q9FNY3 1-292)
T1 construct: partial protein read from the clone; also called DPa; AtDPa
T1 sequence: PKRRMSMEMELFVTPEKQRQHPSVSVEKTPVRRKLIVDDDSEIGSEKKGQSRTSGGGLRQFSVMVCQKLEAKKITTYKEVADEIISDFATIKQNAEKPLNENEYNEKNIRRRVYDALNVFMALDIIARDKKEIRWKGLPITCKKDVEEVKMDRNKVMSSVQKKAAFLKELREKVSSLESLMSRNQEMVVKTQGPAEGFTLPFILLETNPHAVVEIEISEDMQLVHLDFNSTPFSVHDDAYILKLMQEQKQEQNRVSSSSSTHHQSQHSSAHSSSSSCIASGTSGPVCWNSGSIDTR

B1: c-myc-tagged AtDPb 1-193, in vitro translated (other)
chain: EQKLISEEDLEQKLISEEDLMTTTGSNSNHNHHESNNNNNNPSTRSWGTAVSGQSVSTSGSMGSPSSRSEQTITVVTSTSDTTFQRLNNLDIQGDDAGSQGASGVKKKKRGQRAAGPDKTGRGLRQFSMKVCEKVESKGRTTYNEVADELVAEFALPNNDGTSPDQQQYDEKNIRRRVYDALNVLMAMDIISKDKKEIQWRGLPRTSLSDIEE
notes: also called c-myc-AtDPb 1-193
B2: c-myc-tagged AtDPa 1-142, in vitro translated (other)
chain: EQKLISEEDLEQKLISEEDLMSMEMELFVTPEKQRQHPSVSVEKTPVRRKLIVDDDSEIGSEKKGQSRTSGGGLRQFSVMVCQKLEAKKITTYKEVADEIISDFATIKQNAEKPLNENEYNEKNIRRRVYDALNVFMALDIIARDKKEIRWKGLPITCKKDV
notes: also called c-myc-AtDPa 1-142
B3: GAL4 transactivation domain fusion of AtDPb 1-385 (prey in pAD-GAL424) (other, not shown: large carriers)
chain: MTTTGSNSNHNHHESNNNNNNPSTRSWGTAVSGQSVSTSGSMGSPSSRSEQTITVVTSTSDTTFQRLNNLDIQGDDAGSQGASGVKKKKRGQRAAGPDKTGRGLRQFSMKVCEKVESKGRTTYNEVADELVAEFALPNNDGTSPDQQQYDEKNIRRRVYDALNVLMAMDIISKDKKEIQWRGLPRTSLSDIEELKNERLSLRNRIEKKTAYSQELEEQYVGLQNLIQRNEHLYSSGNAPSGGVALPFILVQTRPHATVEVEISEDMQLVHFDFNSTPFELHDDNFVLKTMKFCDQPPQQPNGRNNSQLVCHNFTPENPNKGPSTGPTPQLDMYETHLQSQQHQQHSQLQIIPMPETNNVTSSADTAPVKSPSLPGIMNSSMKPEN
notes: also called full-length AtDPb prey
B4: GAL4 transactivation domain fusion of AtE2Fa 226-356 (prey of Table V) (other, not shown: large carriers)
chain: NRILWKGVDACPGDEDADVSVLQLQAEIENLALEEQALDNQIRQTEERLRDLSENEKNQKWLFVTEEDIKSLPGFQNQTLIAVKAPHGTTLEVPDPDEAADHPQRRYRIILRSTMGPIDVYLVSEFEGKFE
notes: its construction is not described
B5: pGBTE2Fa226-356: GAL4 DNA-binding domain fusion of AtE2Fa amino acids 226-356 (other)
chain: MKLLSSIEQACDICRLKKLKCSKEKPKCAKCLKNNWECRYSPKTKRSPLTRAHLTEVESRLERLEQLFLLIFPREDLDMILKMDSLQDIKALLTGLFVQDNVNKDAVTDRLASVETDMPLTLRQHRISATSSSEESSNKGQRQLTVSNRILWKGVDACPGDEDADVSVLQLQAEIENLALEEQALDNQIRQTEERLRDLSENEKNQKWLFVTEEDIKSLPGFQNQTLIAVKAPHGTTLEVPDPDEAADHPQRRYRIILRSTMGPIDVYLVSEFEGKFE
notes: also called E2F5 dimerisation domain; E2Fa (=E2F5) dimerization domain
B6: pGBTE2Fb 1-127: GAL4 DNA-binding domain fusion of AtE2Fb amino acids 1-127 (other)
chain: MKLLSSIEQACDICRLKKLKCSKEKPKCAKCLKNNWECRYSPKTKRSPLTRAHLTEVESRLERLEQLFLLIFPREDLDMILKMDSLQDIKALLTGLFVQDNVNKDAVTDRLASVETDMPLTLRQHRISATSSSEESSNKGQRQLTVSMSEEVPQQFPSSKRQLHPSLSSMKPPLVAPGEYHRFDAAETRGGGAVADQVVSDAIVIKSTLKRKTDLVNQIVEVNELNTGVLQTPVSGKGGKAKKTSRSAKSNKSGTLASGSNAGSPGNNFAQAGT
B7: GAL4 transactivation domain fusion of AtDPa 1-292 (prey in pAD-GAL424) (other, not shown: large carriers)
chain: MSMEMELFVTPEKQRQHPSVSVEKTPVRRKLIVDDDSEIGSEKKGQSRTSGGGLRQFSVMVCQKLEAKKITTYKEVADEIISDFATIKQNAEKPLNENEYNEKNIRRRVYDALNVFMALDIIARDKKEIRWKGLPITCKKDVEEVKMDRNKVMSSVQKKAAFLKELREKVSSLESLMSRNQEMVVKTQGPAEGFTLPFILLETNPHAVVEIEISEDMQLVHLDFNSTPFSVHDDAYILKLMQEQKQEQNRVSSSSSTHHQSQHSSAHSSSSSCIASGTSGPVCWNSGSIDTR
notes: also called full-length AtDPa prey

Assay [1] concerns the target T2, HA-tagged wild-type AtE2Fb, in vitro translated (Arabidopsis, UniProt Q9FV71 1-469).
T2 construct: wild-type (whole) protein; also called HA-AtE2Fb; E2F3
The experiment in a line: co-immunoprecipitation (anti-c-myc) of in vitro co-translated tagged proteins, SDS-PAGE autoradiography. The protocol: In vitro transcription and translation experiments were performed using the TNT T7-coupled wheat germ extract kit (Promega) primed with appropriate plasmids for 90 min at 30° C. For immunoprecipitation, 10 μl of the total in vitro translated extract (50 μl) was diluted at 1:5 in Nonidet P40 buffer (50 mM Tris, pH 7.4, 150 mM NaCl, 1% Nonidet P40, 1 mM phenylmethylsulfonyl fluoride, 10 μg/ml leupeptin/aprotinin/pepstatin) and incubated for 2 h at 4° C. with anti-c-myc (9E10; BabCo) or anti-HA (16B12; BabCo) antibodies. Protein-A-Sepharose (40 μl 25% (v/v)) was added and incubated for 1 h at 4° C., then the beads were washed four times with Nonidet P40 buffer. Immune complexes were eluted with 10 μl […] sodium dodecyl sulfate (SDS) sample buffer and analyzed by 10% or 15% SDS-PAGE and by autoradiography.
Similar results were obtained by two-hybrid analysis (see Table 5 of Example 12). To test whether the structural requirements for heterodimerization of the AtDPs were similar to those of their animal homologs, several deletion mutants of AtDPa and AtDPb were constructed (for a schematic illustration, see FIGS. 52 and 53), tagged with the c-myc epitope (FIGS. 54 and 55, panels A). The interactions between the mutant AtDPs and AtE2Fb were analyzed in immunoprecipitation experiments with the specific anti-HA or anti-c-myc antibodies ([…], panels B and C, respectively). […]

The target in assay [2] is T3, pGBT DPa 1-292: GAL4 DNA-binding domain fusion of AtDPa 1-292 (Arabidopsis thaliana).
T3 construct: its construction is not described
The experiment in a line: yeast two-hybrid, growth on His- minimal medium; legend: -, no interaction.

For assay [3], the target named is T4, pGBT DPb 1-385: GAL4 DNA-binding domain fusion of AtDPb 1-385 (Arabidopsis thaliana).
T4 construct: its construction is not described
The assay is described as above.

Assay [4] deals with T5, pGBTE2Fb-Rb: GAL4 DNA-binding domain fusion of AtE2Fb amino acids 1-385 (lacking the Rb-binding domain) (Arabidopsis).
T5 construct: also called E2F3 N-terminal; E2Fb (=E2F3) N-terminal domain
Briefly: yeast two-hybrid, growth on His- minimal medium; legend: +, positive interaction. The protocol: (§1) Different combinations between bait (pGBTE2Fa226-356, pGBTE2Fb-Rb, or pGBTE2Fb 1-127, SEQ ID NO:207) and prey constructs were transformed into yeast cells and assayed for their ability to grow on His⁻ minimal media after 3 days of incubation at 30° C. Bait plasmids co-transformed with empty pAD-GAL424 and prey plasmids co-transformed with empty pGBT9 were assessed along as controls for the specificity of the interaction.
(§2) Different combinations between AtE2Fs bait and AtDPs prey constructs were tested for growth on His minimal media. −, no interaction; +, positive interaction; NT, not tested.

Assay [5] deals with T6, empty pGBT9 (GAL4 DNA-binding domain alone) (UniProt P04386 1-147).
T6 construct: empty bait vector, control for specificity; also called pBGT9
The experiment in a line: yeast two-hybrid, growth on His- minimal medium; empty bait vector control; legend: -, no interaction. The protocol:
as §1, §2

Assay [6] addresses B6. The experiment in a line: yeast two-hybrid, growth on His- minimal medium; legend: -, no interaction.
Assay [7] concerns the target T5, pGBTE2Fb-Rb: GAL4 DNA-binding domain …. The assay is described as above.
In assay [8] the target is B5. Described as above.
In assay [9] the target is B7. Briefly: yeast two-hybrid, growth on His- minimal medium; legend: +, positive interaction. The protocol:
as §1, §2

The target in assay [10] is B3. The description is as above. The protocol:
as §1, §2

The target of assay [11] is T1, CCP16, two-hybrid prey clone E2F5BBC1. The experiment in a line: yeast two-hybrid library screen (GAL4, His prototrophy in HF7c); prey clone isolated with this bait. The protocol: For library screening, vectors and strains (HF7c) were provided with the Matchmaker two-hybrid system (Clontech). The dimerization and DNA-binding domains of the AtE2Fa (amino acids 226-356; SEQ ID NO:205) were amplified by polymerase chain reaction (PCR) and subcloned in-frame with the GAL4 DNA-binding domain of pGBT9 (Clontech) to create the bait plasmid pGBTE2Fa226-356. Screens were performed as described previously (De Veylder et al. 1999; Planta 208, 453-462). A second library screening was performed with the AtE2Fb construct (pGBTE2Fb-Rb) lacking the Rb-binding domain (amino acids 1-385; SEQ ID-NO:206). Plasmids from interacting clones were isolated and sequenced.

In assay [12] the target is B7. Briefly: yeast two-hybrid, growth on His- minimal medium; legend: -, no interaction.
The target in assay [13] is B3. The assay is described as above.

T2 sequence (Q9FV71 1-469, tags or fused parts left off): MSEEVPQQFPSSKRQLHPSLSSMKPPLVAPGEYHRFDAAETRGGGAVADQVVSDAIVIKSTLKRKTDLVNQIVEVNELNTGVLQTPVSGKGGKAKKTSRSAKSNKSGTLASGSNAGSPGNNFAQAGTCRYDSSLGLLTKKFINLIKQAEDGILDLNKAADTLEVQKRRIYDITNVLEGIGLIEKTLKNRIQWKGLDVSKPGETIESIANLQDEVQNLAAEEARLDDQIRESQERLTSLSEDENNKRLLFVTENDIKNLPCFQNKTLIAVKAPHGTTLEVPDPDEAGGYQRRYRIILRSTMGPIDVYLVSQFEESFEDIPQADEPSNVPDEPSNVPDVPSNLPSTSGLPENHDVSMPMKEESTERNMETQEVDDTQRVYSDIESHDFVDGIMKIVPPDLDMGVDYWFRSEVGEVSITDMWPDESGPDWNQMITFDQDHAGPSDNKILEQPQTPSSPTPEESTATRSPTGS

With B1, the binding result in [1] is “no binding”.
On the same count and under the same terms, with B2 the entry was “no binding”.
As to B3, the binding result in [2] is “no binding”; in [3] it was “no binding”; in assay [4], “binds”.
Turning to B4, the binding result in assay [5], in assay [6], in assay [7] and in [8] was “no binding” in each case.
Take B5: the binding result in assay [9], in assay [10] and in assay [11] was “binds” each time.
In the case of B6, the binding result in [12] and in assay [13] was “no binding” in each case.
Turning to B7, the binding result in [2] is on record as “no binding”; in [4], “binds”.
